This is an account of results in paper PMC5606203.

Common to all, as to assay: initial rates, colorimetric 2-naphthylamide release
Substrate in data set [1]: C[C@H](N)C(=O)N[C@@H](CCCNC(=N)N)C(=O)Nc1ccc2ccccc2c1
Format: biochemical, Arabidopsis thaliana. The conditions noted are these: 25 °C, pH 7.9, Tris-HCl (I = 0.01), 75 µM CoCl2, DPP III site.

Substrate in data set [2]: N=C(N)NCCC[C@H](NC(=O)[C@@H](N)CCCNC(=N)N)C(=O)Nc1ccc2ccccc2c1
It is filed as biochemical, Arabidopsis thaliana. The conditions noted are these: 25 °C, pH 7.9, Tris-HCl (I = 0.01), 75 µM CoCl2, DPP III site.

Substrate in data set [3]: N=C(N)NCCC[C@H](NC(=O)[C@@H]1CCCN1)C(=O)Nc1ccc2ccccc2c1
Format: biochemical, Arabidopsis thaliana. The conditions noted are these: 25 °C, pH 7.9, Tris-HCl (I = 0.01), 75 µM CoCl2, DPP III site.

Substrate in data set [4]: C[C@H](N)C(=O)N[C@@H](CCCNC(=N)N)C(=O)Nc1ccc2ccccc2c1
It is filed as biochemical, Physcomitrium patens. As to conditions: 25 °C, pH 7.4, Tris-HCl (I = 0.01), 75 µM CoCl2, DPP III site.

Substrate in data set [5]: N=C(N)NCCC[C@H](NC(=O)[C@@H](N)CCCNC(=N)N)C(=O)Nc1ccc2ccccc2c1
Format: biochemical, Physcomitrium patens. As to conditions: 25 °C, pH 7.4, Tris-HCl (I = 0.01), 75 µM CoCl2, DPP III site.

B1: AtND (Arabidopsis thaliana) (protein)
chain: MAEEHFDVLTKSGEKTGVSKPRGEVHRDGDYHRAVHVWIFVETTQQLLLQLRSDDKDSWPGQWDISSAGHISAGDTSLLSAQRELEEELGVKLPKDAFEKIFVFLQECVTNDGKFINNEFNDVYLVTILHPIPLEAFTLQKEEVSAVKYVPYEEYRNFLSKEDPAYVPYDVNGEYGKLFDIIRQRCQVNTEARSLSLQKQLQRYSPVTLEAKLTELSEADQKALGLIVKAAKIMDDIFYEQVWNSNPALRDWLKDHANASKLDKLKWDYFTINKSPWSSLDENEAFLSTADSAVKLLPGATKAIAGWKGLEYRAAFPVTKPPGANFYPPDMDKMEFTLWLNGLTEEQKHAATGFFSVIKRRSEANLDASDHLASSTKKLPDSNSDLYSIPYSEIYRPFLKKASEFLQKAGDLVSSPSLKKLLHSKAEAFLSNEYYESDIAWMDLDSKLDITIGPYETYEDEIFGYKATFETFIGIRDDKATADLKLFGDNLKLLEDNLPLESVYKSTDVSAAPIRVIQLIYNSGDVKGPQTVAYNLPNDEKIVKDRGTSMVMLKNVQEAKFEHILKPIAEITISKEQRGLVDFDSFFTHTICHECCHGIGPHTITLPGGQTSTVRKELQEVHSAMEEAKADIVGLWALKFLITKGLLSKSMVESMYVSFLAGCFRSIRFGLTEAHGKGQALQFNYLYEKGAFVFHEDSTFSVDFAKIEGAVESLSHEILTIQGKGDKNAATLLLNKYCTITGPLKTALENLERVKVPVDISPTFPLAEALMN
For orientation: Km means the concentration of substrate that gives half-maximal velocity. A word on the kcat: it is the maximal rate divided by the concentration of active sites. Usually kcat/Km stands for the turnover number divided by the Michaelis constant. Consider B1, for which, in data set [1], the Km came to 5.0 ± 0.3 µM, the kcat worked out at 0.0415 ± 0.0035 s⁻¹ and the kcat/Km was determined as 8300 M⁻¹ s⁻¹. For the same protein, in data set [2], the Km is 3.25 ± 1.12 µM, the kcat stood at 0.002 ± 1.67e-05 s⁻¹ and the kcat/Km came to 615 M⁻¹ s⁻¹. Also, in data set [3], the Km was 40.85 ± 12.09 µM, the kcat came to 0.0372 ± 0.005 s⁻¹ and the kcat/Km is 908 M⁻¹ s⁻¹.

B2: PpND (Physcomitrium patens) (protein)
chain: MEGFQEEFSLGECLDVLTAAGLRTGDVKKRHLVHADGDYHRAVHVWLFVESTQELVLQKRADCKDSWPGLWDISSAGHISAGDTSLLTARRELQEELGITLPADAFEFLFDYLQECVINGGKYINNEYNDVYLVTLVDHIPVEAFTLQETEVSAVKYMKWQDYEDAVRKEDSSYVPCDVDGGYSALFSALRRRYEVDTSAKLEELQMHINRYVPVEIHGETTGLSKGDLLALSDTIRAAKLLDRIFLEQEWATNPALKDSLQAASGKSELDRLKFAYYLINKSPWSILDENDAFLTTADSAIQIAEGAVDESVTWGGKVRYRAAFPVEKAPGANFYPVDMDKEEFQAWKDGLDKGQQADATSFFTTIRRSGDIHDADGAKVHDLKIVPYSKEYATILKEASYLLHKAGDSAENPSLKRLLKAKADAFLSNDYYESDIAWMELDSPLDVTIGPYETYEDGLFGYKATFEAFIGIRDDEATQRLKLFSHNLQEMEDNLPMDDEYKSKTVTFSPIRVIQLLYNSGDVKGPQTVAFNLPNDDRIVKERGTAMVMLKNISQAKFDYILLPIANVCVEASQRGAVDFDSFFTHTICHECCHGIGPHNIVTPDGRASTVRLELQEVYSAIEEAKADIVGLWALHFLVDKGLLPRSLENTMYVSFLAGCFRSIRFGLEEAHGKGQALQFNFILEKGGFSYHPDGTFSVDYTKVRQCVEDLSRLILTIEAKGDKAGAEALLAKYAALTPQLQQSFDALQDVQVPVDIFPTFKLLDDIKL
For B2, in data set [4], the Km was found to be 17.21 ± 0.75 µM and the turnover number (kcat) came out at 0.0106 ± 0.00262 s⁻¹. For the same protein, in data set [5], the Km is on record as 10.63 ± 1.72 µM and the kcat came out at 0.0137 ± 0.003 s⁻¹.
